Results taken from patent publication US10273305B2, “Bispecific CXCR4-CD4 polypeptides with potent anti-HIV activity” (Ablynx N.V., priority 2015, dated 2019).

B1: 3F11: anti-CD4 Nanobody, SEQ ID NO: 20 (protein)
VHH: EVQLVESGGGSVQPGGSLTLSCGTSGRTFNVMGWFRQAPGKEREFVAAVRWSSTGIYYTQYADSVKSRFTISRDNAKNTVYLEMNSLKPEDTAVYYCAADTYNSNPARWDGYDFRGQGTQVTVSS
modifications: Nanobody Sequence

Experiments:
[1] = system: dual-tropic R5/X4 HIV-1 HE; assay: HIV-1 HE infection of PBMCs, p24; assay type: cell-based
R5 SM145 = assay: TZM-bl luciferase assay, SM145; assay type: cell-based, HIV-1; conditions: read-out: IC50 TZM-bl R5 SM145 n = 2
R5 DJ259 = assay: TZM-bl luciferase assay, DJ259; assay type: cell-based, HIV-1; conditions: read-out: IC50 TZM-bl R5 DJ259 n = 2
X4 HIV-1 NL4.3 WT = assay: TZM-bl luciferase assay, NL4.3 WT; assay type: cell-based
R5 HIV-1 BaL virus = assay: TZM-bl luciferase assay, BaL; assay type: cell-based; conditions: read-out: IC50 R5 HIV-1 BaL virus in TZM-bl cells
[2] = system: dual-tropic R5/X4 HIV-1 HE; assay: TZM-bl luciferase assay, HE; assay type: cell-based
[3] = system: dual-tropic R5/X4 HIV-2 ROD; assay: TZM-bl luciferase assay, HIV-2 ROD; assay type: cell-based
CD4 [4] = molecular target: T1, CD4 (Homo sapiens, UniProt P01730); assay: FACS binding of CD4 Nanobody 3F11 to human cells; conditions: CD8+ T cells isolated from human PBMCs
Protocol: The EC50 values results are depicted in Table 2.4. […] To confirm the specificity of the anti-CD4 Nanobody, binding of 03F11 was also assessed to cytotoxic CD8^+ T cells isolated from human PBMCs using the CD8 T Cell Isolation Kit (Miltenyi Biotech, Cat. 130-096-495), resulting in 94% purity of CD8^+ cells.

CD4 [5] = molecular target: T1, CD4; assay: Flow cytometry binding of purified CD4 Nanobodies to Jurkat and THP-1 cells; conditions: 100 nM Nanobody
Protocol: Murine Ba/F3 myeloid cells were used as negative control cells. Purified Nanobodies (100 nM) were allowed to bind to 10^5 cells for 30 minutes at 4° C. in a final volume of 100 μl of 10% FBS (Invitrogen, Cat 10270-106) in PBS (Invitrogen #14190). Bound Nanobodies were detected with mouse anti-myc antibody (Serotec, Cat#MCA2200) followed by goat anti-mouse-PE antibody (Jackson #115-115-164). Dead cells percentage population was determined by staining the cells with TOPRO3 (Molecular probes T3605). Using a BD FACS Array Bioanalyzer system, a PE filter 585/42 and a Topro filter 661/16, twenty thousand events were acquired. TOPRO3+ cells were excluded, and the mean channel fluorescence (MCF) was calculated. Expression of CD4 in Jurkat and THP-1 cells was confirmed by using 10 μg/ml of an anti-CD4 monoclonal antibody (Diaclone, clone B-A1 cat#854.030.000). Staining of the cells with anti-myc and/or the goat anti mouse-PE antibodies antibody was performed as negative controls.

[6] = molecular target: interaction of CD4 with the viral gp120 protein (Homo sapiens, UniProt P01730); assay: ELISA-based competition of CD4-gp120 interaction; assay type: binding; conditions: 500 nM Nanobody; gp120 HIV-1 IIIB
Protocol: Besides its role on T-cells, CD4 also serves as primary receptor for HIV entry. Therefore purified CD4 Nanobodies were analysed for the capacity to block the interaction of CD4 with the viral gp120 protein. Monovalent His-tagged Nanobodies were purified from periplasmic extracts by affinity and desalting chromatography and used in an ELISA-based competition setup. In short, 1 μg/ml of gp120 HIV-1 IIIB (Immunodiagnostic) was captured by 20 μg/ml of sheep anti-gp120 antibody D7324 (Aalto Bio Reagents) previously coated in 96 well Maxisorp microtiter plates (Nunc) and blocked with 1% casein in PBS. In parallel, 0.5 μg/ml of biotinylated CD4 was incubated with 500 nM of the different purified Nanobodies in 100 μl 0.1% Casein/PBS. After 1 hour, the biotinylated CD4-Nanobody pre-mixes were incubated 1 hour with the captured gp120. Bound biotinylated CD4 was detected using HRP-conjugated Extravidin (Sigma E2886). A blocking mouse anti-CD4 IgG2a antibody (Diaclone, clone B-A1 cat#854.030.000) was used as positive control. Blocking activity was determined as loss of O.D. signal, as compared to wells where no Nanobody was added.

HIV-1 X4 NL4.3 strain = assay: HIV-1 NL4.3 infection of PHA-stimulated PBMCs, p24 Ag ELISA; assay type: cell-based
CXCR4 [7] = molecular target: T2, CXCR4 (Homo sapiens, UniProt P61073); assay: Inhibition of SDF-1 mediated chemotaxis; assay type: cell-based; conditions: average of 3
T2 sequence (P61073 whole entry): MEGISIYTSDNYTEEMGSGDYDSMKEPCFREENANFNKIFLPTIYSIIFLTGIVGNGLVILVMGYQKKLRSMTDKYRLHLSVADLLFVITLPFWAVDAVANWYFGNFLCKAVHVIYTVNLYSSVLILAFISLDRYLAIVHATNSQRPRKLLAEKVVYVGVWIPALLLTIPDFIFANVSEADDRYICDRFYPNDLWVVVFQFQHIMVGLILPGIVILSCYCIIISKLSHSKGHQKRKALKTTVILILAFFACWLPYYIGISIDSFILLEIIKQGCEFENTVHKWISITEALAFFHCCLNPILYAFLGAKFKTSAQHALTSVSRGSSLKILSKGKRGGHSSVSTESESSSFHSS
Protocol: As chemoattractant a concentration of 750 pM SDF-1α (R&D Systems) was used on 100,000 cells/well for the Jurkat cell line, and 500,000 cells/well for the MOLM-13 cell line. SDF-1α and serially diluted Nanobody constructs were added to the bottom of a small chemotaxis plate (Neuprobe 106-5) in a total volume of 29 μl. A chemotaxis filter membrane (ChemoTx® Disposibla, pore size 5 μm) was placed on top of the wells, ensuring that the membrane was in contact with the solution in the wells below. A Nanobody dilution (10 μl at 5× the serially diluted final concentration as below the membrane in each well) was added on top of the membrane, followed by 40 μl of cell suspension. The plates were incubated for 3 hours at 37° C. in a humidified incubator (5% CO2). After incubation, the filters were carefully removed and the cells in the well below were resuspended in the existing solution. The complete cell suspension was transferred to the corresponding wells of white polystyrene Costar plates. After this, 30 μl of Cell Titer Glo reagent (Promega G7571) was added to each well, followed by a 10 minute incubation, with shaking in the dark. Luminescence was measured (1 sec/well) using an Envision 2103 Multilabel Reader with emission filter 700 (Perkin Elmer). […]

CXCR4 [8] = molecular target: T2, CXCR4; assay: CXCL12-AF647 binding inhibition on SupT1 cells by flow cytometry; conditions: T-cells (SUPT-1)
CXCR4 [9] = molecular target: T2, CXCR4; assay: Inhibition of SDF-1 induced Ca2+ signaling in U87.CD4.CXCR4 cells (FLIPR); assay type: cell-based
HUT-78/HIV-1 NL4.3 = assay: HIV-1-mediated cell-cell fusion, HUT-78/NL4.3 with SupT1 cells; conditions: read-out: IC50 cell-cell fusion
cynomolgus CD4 = cynomolgus CD4 (Macaca fascicularis, UniProt P79185); assay: Binding of 3F11 to cynomolgus CD4+ HSC-F T cells, flow cytometry; conditions: HSC-F T cell line
Chain of cynomolgus CD4 (P79185 26-458): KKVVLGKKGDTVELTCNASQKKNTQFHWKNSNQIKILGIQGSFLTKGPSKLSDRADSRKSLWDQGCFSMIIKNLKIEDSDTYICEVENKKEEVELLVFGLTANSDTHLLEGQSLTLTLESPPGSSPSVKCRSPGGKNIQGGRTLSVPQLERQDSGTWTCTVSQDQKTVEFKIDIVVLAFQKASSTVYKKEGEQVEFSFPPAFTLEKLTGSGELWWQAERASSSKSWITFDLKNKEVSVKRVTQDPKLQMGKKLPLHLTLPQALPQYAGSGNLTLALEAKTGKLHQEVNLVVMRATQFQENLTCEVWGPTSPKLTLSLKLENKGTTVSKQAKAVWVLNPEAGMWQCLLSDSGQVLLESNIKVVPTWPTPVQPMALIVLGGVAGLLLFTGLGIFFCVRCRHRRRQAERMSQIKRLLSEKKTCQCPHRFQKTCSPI

Molecule | IC50 dual-tropic R5/X4 HIV-1 HE in PBMCs [1] | IC50 (R5 SM145) | IC50 (R5 DJ259) | IC50 X4 HIV-1 NL4.3 in TZM-bl cells (X4 HIV-1 NL4.3 WT) | IC50 (R5 HIV-1 BaL virus) | activity against R5/X4 HIV-1 HE in TZM-bl cells [2] | activity against R5/X4 HIV-2 ROD in TZM-bl cells [3] | binding to cytotoxic CD8+ T cells (CD4 [4]) | binding to CD4 expressed on a cell surface (CD4 [5]) | blocking of in vitro interaction of CD4 with gp120 [6] | IC50 HIV-1 NL4.3 in PBMC (HIV-1 X4 NL4.3 strain) | Inhibition of SDF-1a-mediated chemotaxis IC50 MOLM-13 cells (CXCR4 [7]) | IC50 of blocking CXCL12AF647 binding to CXCR4 (CXCR4 [8]) | IC50 of CXCL-12-induced Ca2+-signaling inhibition (CXCR4 [9]) | IC50 (HUT-78/HIV-1 NL4.3) | binding to cynomolgus CD4 (cynomolgus CD4)
maraviroc [AMD14031] | never showed any significant anti-HIV-1 HE activity | 2.82 µM | 7.54 µM | did not block | 4.2 µM | did not block | did not block | – | – | – | – | – | – | – | – | –
B1 | not active | – | – | – | – | – | – | No binding | highest binding signal on THP-1 cells | block | weakly active | did not have any effect on SDF-1 function | did not interfere | no CXCL-12-induced Ca^2+-signaling inhibition | 2.7 µM | cross-reactive to cynomolgus CD4
